According to paper PMC5548930:

T1: C-terminally biotinylated endothelin-1
T1 chain: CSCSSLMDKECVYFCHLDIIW

T2: Gαi3 protein, P08754
T2 chain: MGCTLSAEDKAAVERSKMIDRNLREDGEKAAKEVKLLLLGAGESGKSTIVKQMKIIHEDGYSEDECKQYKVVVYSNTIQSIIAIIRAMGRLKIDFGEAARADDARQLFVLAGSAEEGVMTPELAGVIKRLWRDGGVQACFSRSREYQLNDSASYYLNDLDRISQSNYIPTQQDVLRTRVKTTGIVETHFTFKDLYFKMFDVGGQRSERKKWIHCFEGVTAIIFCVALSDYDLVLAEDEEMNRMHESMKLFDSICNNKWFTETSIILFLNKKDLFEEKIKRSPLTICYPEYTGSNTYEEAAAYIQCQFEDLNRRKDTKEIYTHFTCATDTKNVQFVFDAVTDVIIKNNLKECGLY


Columns and labels:
[1] = target: Endothelin-1 (Homo sapiens) (UniProt P05305); conditions: cited from earlier work
[2] = target: T1, C-terminally biotinylated endothelin-1; test: ELISA (immobilized purified P9-ETA proteins, bET-1 detected with SA-HRP); conditions: chain shown with the change; 5 μM bET-1; proteins reconstituted with APG; parent: est. 100; read off a plot
Gαi3 protein, P08754 = target: T2, Gαi3 protein, P08754; test: ELISA (immobilized Gαi3, bound P9-ETA detected with anti-P9 antibody); conditions: chain shown with the change; 1 μM mutant; parent: est. 100; read off a plot

Row | percent of parent [2] | percent of parent (Gαi3 protein, P08754) | Molecule | Kd [1] [nM]
1 |  |  | Endothelin receptor type A (P9-ETA fusion) (from UniProt P25101) | 60
2 | 31 % of w.t | 110 % of w.t | wild type P9-ETA (human endothelin receptor type A with N-terminal P9 fusion), P25101 G261W (protein) DNPERYSTNLSNHVDDFTTFRGTELSFLVTTHQPTNLVLPSNGSMHNYCPQQTKITSAFKYINTVISCTIFIVGMVGNATLLRIIYQNKCMRNGPNALIASLALGDLIYVVIDLPINVFKLLAGRWPFDHNDFGVFLCKLFPFLQKSSVGITVLNLCALSVDRYRAVASWSRVQGIGIPLVTAIEIVSIWILSFILAIPEAIGFVMVPFEYRGEQHKTCMLNATSKFMEFYQDVKDWWLFWFYFCMPLVCTAIFYTLMTCEMLNRRNGSLRIALSEHLKQRREVAKTVFCLVVIFALCWFPLHLSRILKKTVYNEMDKNRCELLSFLLLMDYIGINLATMNSCINPIALYFVSKKFKNCFQSCLCCCCYQSKSLMTSVPMNGTSIQWKNHDQNNHNTDRSSHKDSMN | 
3 | 29 % of w.t | 92 % of w.t | wild type P9-ETA (human endothelin receptor type A with N-terminal P9 fusion), P25101 D35N (protein) DNPERYSTNLSNHVNDFTTFRGTELSFLVTTHQPTNLVLPSNGSMHNYCPQQTKITSAFKYINTVISCTIFIVGMVGNATLLRIIYQNKCMRNGPNALIASLALGDLIYVVIDLPINVFKLLAGRWPFDHNDFGVFLCKLFPFLQKSSVGITVLNLCALSVDRYRAVASWSRVQGIGIPLVTAIEIVSIWILSFILAIPEAIGFVMVPFEYRGEQHKTCMLNATSKFMEFYQDVKDWWLFGFYFCMPLVCTAIFYTLMTCEMLNRRNGSLRIALSEHLKQRREVAKTVFCLVVIFALCWFPLHLSRILKKTVYNEMDKNRCELLSFLLLMDYIGINLATMNSCINPIALYFVSKKFKNCFQSCLCCCCYQSKSLMTSVPMNGTSIQWKNHDQNNHNTDRSSHKDSMN | 
4 | 18 % of w.t | 110 % of w.t | wild type P9-ETA (human endothelin receptor type A with N-terminal P9 fusion), P25101 K140I (protein) DNPERYSTNLSNHVDDFTTFRGTELSFLVTTHQPTNLVLPSNGSMHNYCPQQTKITSAFKYINTVISCTIFIVGMVGNATLLRIIYQNKCMRNGPNALIASLALGDLIYVVIDLPINVFILLAGRWPFDHNDFGVFLCKLFPFLQKSSVGITVLNLCALSVDRYRAVASWSRVQGIGIPLVTAIEIVSIWILSFILAIPEAIGFVMVPFEYRGEQHKTCMLNATSKFMEFYQDVKDWWLFGFYFCMPLVCTAIFYTLMTCEMLNRRNGSLRIALSEHLKQRREVAKTVFCLVVIFALCWFPLHLSRILKKTVYNEMDKNRCELLSFLLLMDYIGINLATMNSCINPIALYFVSKKFKNCFQSCLCCCCYQSKSLMTSVPMNGTSIQWKNHDQNNHNTDRSSHKDSMN | 
5 | 50 % of w.t | 120 % of w.t | wild type P9-ETA (human endothelin receptor type A with N-terminal P9 fusion), P25101 F161L (protein) DNPERYSTNLSNHVDDFTTFRGTELSFLVTTHQPTNLVLPSNGSMHNYCPQQTKITSAFKYINTVISCTIFIVGMVGNATLLRIIYQNKCMRNGPNALIASLALGDLIYVVIDLPINVFKLLAGRWPFDHNDFGVFLCKLLPFLQKSSVGITVLNLCALSVDRYRAVASWSRVQGIGIPLVTAIEIVSIWILSFILAIPEAIGFVMVPFEYRGEQHKTCMLNATSKFMEFYQDVKDWWLFGFYFCMPLVCTAIFYTLMTCEMLNRRNGSLRIALSEHLKQRREVAKTVFCLVVIFALCWFPLHLSRILKKTVYNEMDKNRCELLSFLLLMDYIGINLATMNSCINPIALYFVSKKFKNCFQSCLCCCCYQSKSLMTSVPMNGTSIQWKNHDQNNHNTDRSSHKDSMN | 
6 | 26 % of w.t | 140 % of w.t | wild type P9-ETA (human endothelin receptor type A with N-terminal P9 fusion), P25101 F346C (protein) DNPERYSTNLSNHVDDFTTFRGTELSFLVTTHQPTNLVLPSNGSMHNYCPQQTKITSAFKYINTVISCTIFIVGMVGNATLLRIIYQNKCMRNGPNALIASLALGDLIYVVIDLPINVFKLLAGRWPFDHNDFGVFLCKLFPFLQKSSVGITVLNLCALSVDRYRAVASWSRVQGIGIPLVTAIEIVSIWILSFILAIPEAIGFVMVPFEYRGEQHKTCMLNATSKFMEFYQDVKDWWLFGFYFCMPLVCTAIFYTLMTCEMLNRRNGSLRIALSEHLKQRREVAKTVFCLVVIFALCWFPLHLSRILKKTVYNEMDKNRCELLSCLLLMDYIGINLATMNSCINPIALYFVSKKFKNCFQSCLCCCCYQSKSLMTSVPMNGTSIQWKNHDQNNHNTDRSSHKDSMN | 
7 | 59 % of w.t | 97 % of w.t | wild type P9-ETA (human endothelin receptor type A with N-terminal P9 fusion), P25101 C69S (protein) DNPERYSTNLSNHVDDFTTFRGTELSFLVTTHQPTNLVLPSNGSMHNYSPQQTKITSAFKYINTVISCTIFIVGMVGNATLLRIIYQNKCMRNGPNALIASLALGDLIYVVIDLPINVFKLLAGRWPFDHNDFGVFLCKLFPFLQKSSVGITVLNLCALSVDRYRAVASWSRVQGIGIPLVTAIEIVSIWILSFILAIPEAIGFVMVPFEYRGEQHKTCMLNATSKFMEFYQDVKDWWLFGFYFCMPLVCTAIFYTLMTCEMLNRRNGSLRIALSEHLKQRREVAKTVFCLVVIFALCWFPLHLSRILKKTVYNEMDKNRCELLSFLLLMDYIGINLATMNSCINPIALYFVSKKFKNCFQSCLCCCCYQSKSLMTSVPMNGTSIQWKNHDQNNHNTDRSSHKDSMN | 
8 | 130 % of w.t | 160 % of w.t | wild type P9-ETA (human endothelin receptor type A with N-terminal P9 fusion), P25101 S213L (protein) DNPERYSTNLSNHVDDFTTFRGTELSFLVTTHQPTNLVLPSNGSMHNYCPQQTKITSAFKYINTVISCTIFIVGMVGNATLLRIIYQNKCMRNGPNALIASLALGDLIYVVIDLPINVFKLLAGRWPFDHNDFGVFLCKLFPFLQKSSVGITVLNLCALSVDRYRAVASWSRVQGIGIPLVTAIEIVSIWILLFILAIPEAIGFVMVPFEYRGEQHKTCMLNATSKFMEFYQDVKDWWLFGFYFCMPLVCTAIFYTLMTCEMLNRRNGSLRIALSEHLKQRREVAKTVFCLVVIFALCWFPLHLSRILKKTVYNEMDKNRCELLSFLLLMDYIGINLATMNSCINPIALYFVSKKFKNCFQSCLCCCCYQSKSLMTSVPMNGTSIQWKNHDQNNHNTDRSSHKDSMN | 
9 | 3 % of w.t | 120 % of w.t | wild type P9-ETA (human endothelin receptor type A with N-terminal P9 fusion), P25101 M65K (protein) DNPERYSTNLSNHVDDFTTFRGTELSFLVTTHQPTNLVLPSNGSKHNYCPQQTKITSAFKYINTVISCTIFIVGMVGNATLLRIIYQNKCMRNGPNALIASLALGDLIYVVIDLPINVFKLLAGRWPFDHNDFGVFLCKLFPFLQKSSVGITVLNLCALSVDRYRAVASWSRVQGIGIPLVTAIEIVSIWILSFILAIPEAIGFVMVPFEYRGEQHKTCMLNATSKFMEFYQDVKDWWLFGFYFCMPLVCTAIFYTLMTCEMLNRRNGSLRIALSEHLKQRREVAKTVFCLVVIFALCWFPLHLSRILKKTVYNEMDKNRCELLSFLLLMDYIGINLATMNSCINPIALYFVSKKFKNCFQSCLCCCCYQSKSLMTSVPMNGTSIQWKNHDQNNHNTDRSSHKDSMN | 
10 | 66 % of w.t | 93 % of w.t | wild type P9-ETA (human endothelin receptor type A with N-terminal P9 fusion), P25101 L59P (protein) DNPERYSTNLSNHVDDFTTFRGTELSFLVTTHQPTNLVPPSNGSMHNYCPQQTKITSAFKYINTVISCTIFIVGMVGNATLLRIIYQNKCMRNGPNALIASLALGDLIYVVIDLPINVFKLLAGRWPFDHNDFGVFLCKLFPFLQKSSVGITVLNLCALSVDRYRAVASWSRVQGIGIPLVTAIEIVSIWILSFILAIPEAIGFVMVPFEYRGEQHKTCMLNATSKFMEFYQDVKDWWLFGFYFCMPLVCTAIFYTLMTCEMLNRRNGSLRIALSEHLKQRREVAKTVFCLVVIFALCWFPLHLSRILKKTVYNEMDKNRCELLSFLLLMDYIGINLATMNSCINPIALYFVSKKFKNCFQSCLCCCCYQSKSLMTSVPMNGTSIQWKNHDQNNHNTDRSSHKDSMN | 
11 | 42 % of w.t | 130 % of w.t | wild type P9-ETA (human endothelin receptor type A with N-terminal P9 fusion), P25101 N29D (protein) DNPERYSTDLSNHVDDFTTFRGTELSFLVTTHQPTNLVLPSNGSMHNYCPQQTKITSAFKYINTVISCTIFIVGMVGNATLLRIIYQNKCMRNGPNALIASLALGDLIYVVIDLPINVFKLLAGRWPFDHNDFGVFLCKLFPFLQKSSVGITVLNLCALSVDRYRAVASWSRVQGIGIPLVTAIEIVSIWILSFILAIPEAIGFVMVPFEYRGEQHKTCMLNATSKFMEFYQDVKDWWLFGFYFCMPLVCTAIFYTLMTCEMLNRRNGSLRIALSEHLKQRREVAKTVFCLVVIFALCWFPLHLSRILKKTVYNEMDKNRCELLSFLLLMDYIGINLATMNSCINPIALYFVSKKFKNCFQSCLCCCCYQSKSLMTSVPMNGTSIQWKNHDQNNHNTDRSSHKDSMN | 
